From paper PMC11150925 come the findings set out here.

Substrate in the series: [H][C@]12C[C@]([H])(OO1)[C@H](C/C=C\CCCC(=O)O)[C@H]2/C=C/[C@@H](O)CCCCC
In words: purified protein. The note with it: PGD2 synthase reaction; 2 mM GSH fixed (saturating); PGH2 0.08-40 μM.

B1: rCsGST-σ1 (Clonorchis sinensis) (protein)
chain: MADEHYTLFYFQFRGRAEAIRMILHANGVHFKDERFTMNEWPERRNQIPGSRVPLLQVKKNKTHEVANYVESMAIARMLAKRFHMMGDSEEEYYRVERMIGQCADLDKEFYTAFFAAADQKEEMLKKSMREAVPKMLDLISKSISESGGKFAAGDKVTLGDICLLTSMDHVRKHDPEFLGKHYPKLLVLEQEVLKAKPKLAEYIRTRPETPL
As a reminder, the Km is the substrate concentration at which the rate is half of its maximum. By kcat is commonly meant the maximal rate divided by the concentration of active sites. In general, kcat/Km refers to the turnover number divided by the Michaelis constant. Consider B1, for which the Michaelis constant (Km) was found to be 92.1 µM, the kcat came to 451 s⁻¹ and the kcat/Km is 4.9e+06 M⁻¹ s⁻¹.

B2: rCsGST-σ3 (Clonorchis sinensis) (protein)
chain: MSGEKYKLYYFPFRARGEVIRMVLHAAGVPFDDERIPMDDWPKRKSEIPGGRMPVLQVIDPDKPDTPKNFVEGMAIARMLAKRFDLMDDTEEGYYNTERMIGECEDVFKEFRSVFLSPADKKEELLKEAMETSIPKQLDLISKSLSESAGKFVAGCKVTLGDLCLLACLDHVDKSDPEFLKDKYPKLLEWREEVLKEKPKLADYIKSRPDTPF
In the case of B2, the Michaelis constant (Km) stood at 30.2 µM, the kcat is 90.7 s⁻¹ and the specificity constant (kcat/Km) stood at 3e+06 M⁻¹ s⁻¹.

B3: rCsGST-μ1 (Clonorchis sinensis) (protein)
chain: MAPVLGYWKIRGLAQPIRLLLEYVGDSYEEHSYGRCDGEKWQNDKHNLGLELPNLPYYKDGNFSLTQSLAILRYIADKHNMIGNTPVERAKISMIEGGLVDLRAGVSRIAYQETFVCIVSTFCLSHTSQEQLKVPYLQQLPSTLRMWSQFLGNNSYLHGSTPTHLDFMFYEALDVIRYLDPTSVEAFPNLMQFIHRIEALPNIKAFMESDRFIKWPLNGWSAYFGGGDAPPK
Turning to B3, the Michaelis constant (Km) was 4.9 µM, the turnover number (kcat) worked out at 12.5 s⁻¹ and the kcat/Km is 2.6e+06 M⁻¹ s⁻¹.

B4: rCsPGDS1 (Clonorchis sinensis) (protein)
chain: MSQYKLTYFNLRGRAEPIRMVLIISGTPFEDCRIEVSDWPSKKSTIPGGKLPILEVTSPCGKKTLMTESMATARYLAKQHNLMGATDEDYYKIEKTIGECGDLHDLVYKIARAPDAEKPKLIEELKKLENAPRLLNLMSETLKSNPSGFVAGEKVSLGDIALLCTLDQFESVYPGFLKENYPIFANHREHIMELQPKLAEHIKTRPTTIV
On to B4, for which the Km is 21.0 µM, the catalytic constant (kcat) is 90.6 s⁻¹ and the catalytic efficiency (kcat/Km) worked out at 4.3e+06 M⁻¹ s⁻¹.
